Source: patent US20210100901A1 (MAINE MEDICAL CENTER RESEARCH INSTITUTE, published 2021)

Experiments:
[1] = molecular target: T1, integrin αvβ3 (human, UniProt P06756 31-1048; P05106 27-788); assay: HUVEC adhesion to immobilized peptide with function blocking antibodies
T1 construct: whole, on cells; Endogenous receptor on cells; also called β3 integrin
Procedure: RGD peptides (P-1, P-2, P-3, P-4, P-5, and P-C) were immobilized (100 μg/ml) to wells. HUVEC, HMVEC, HRMVEC, and HDF cells were suspended in adhesion buffer (RPMI containing 1 mM MgCl2, 0.2 mM MnCl2 and 0.5% BSA) and 1×10^5 cells were seeded into the wells in the presence or absence of P4C10, LM609, P1F6 or control antibodies (100 μg/ml). Cells were allowed to attach for 25 min at 37° C. Media containing non-attached cells was aspirated and attached cells were washed with PBS and stained with crystal violet. Cell adhesion was quantified by measuring the optical density of eluted dye. Adhesion assays were completed at least three times with triplicate wells.
It is well established that multiple integrins recognize RGD amino acid motifs within ECM proteins. However, the ability of an integrin to bind distinct RGD epitopes depends in part on its orientation within the parent molecule and the C-terminal amino acid sequences flanking the RGD motif (25-27). Potential cell surface receptors that mediate interactions with the RGDKGE (SEQ ID NO. 1) containing collagen P-2 peptide were identified. The ability of endothelial cells to bind the RGD collagen peptides P-1 and P-2 in the presence or absence of function blocking anti-integrin antibodies was examined.

[2] = molecular target: T1, integrin αvβ3; assay: cell-based or functional assay

T1 sequence (P06756 31-1048, chain 1 of 2): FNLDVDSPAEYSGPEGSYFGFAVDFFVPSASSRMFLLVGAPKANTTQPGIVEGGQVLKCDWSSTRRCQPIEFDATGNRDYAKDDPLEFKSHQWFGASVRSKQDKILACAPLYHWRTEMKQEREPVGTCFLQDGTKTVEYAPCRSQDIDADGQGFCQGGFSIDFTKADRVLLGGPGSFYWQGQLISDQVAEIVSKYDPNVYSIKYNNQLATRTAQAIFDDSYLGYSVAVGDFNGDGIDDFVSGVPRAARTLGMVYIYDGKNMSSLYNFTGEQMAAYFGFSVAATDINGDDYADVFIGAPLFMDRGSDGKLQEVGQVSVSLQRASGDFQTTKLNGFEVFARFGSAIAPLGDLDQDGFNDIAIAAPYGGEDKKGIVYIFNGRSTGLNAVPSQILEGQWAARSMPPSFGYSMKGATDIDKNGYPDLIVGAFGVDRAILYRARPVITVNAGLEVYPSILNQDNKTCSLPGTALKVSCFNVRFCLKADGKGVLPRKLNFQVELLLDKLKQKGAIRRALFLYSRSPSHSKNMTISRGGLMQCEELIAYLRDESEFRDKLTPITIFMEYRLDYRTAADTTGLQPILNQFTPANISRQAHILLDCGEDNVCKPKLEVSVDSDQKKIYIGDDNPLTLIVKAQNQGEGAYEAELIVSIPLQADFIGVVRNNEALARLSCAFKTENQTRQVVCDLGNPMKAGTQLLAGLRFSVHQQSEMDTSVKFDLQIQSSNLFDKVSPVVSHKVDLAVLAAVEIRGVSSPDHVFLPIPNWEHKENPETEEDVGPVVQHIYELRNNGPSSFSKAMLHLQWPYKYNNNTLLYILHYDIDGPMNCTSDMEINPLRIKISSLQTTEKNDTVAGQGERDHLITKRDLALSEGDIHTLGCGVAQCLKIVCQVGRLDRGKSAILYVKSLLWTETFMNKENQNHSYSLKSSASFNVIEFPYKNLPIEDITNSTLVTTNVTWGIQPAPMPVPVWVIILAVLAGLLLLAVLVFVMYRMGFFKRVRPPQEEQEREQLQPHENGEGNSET
T1 sequence (P05106 27-788, chain 2 of 2): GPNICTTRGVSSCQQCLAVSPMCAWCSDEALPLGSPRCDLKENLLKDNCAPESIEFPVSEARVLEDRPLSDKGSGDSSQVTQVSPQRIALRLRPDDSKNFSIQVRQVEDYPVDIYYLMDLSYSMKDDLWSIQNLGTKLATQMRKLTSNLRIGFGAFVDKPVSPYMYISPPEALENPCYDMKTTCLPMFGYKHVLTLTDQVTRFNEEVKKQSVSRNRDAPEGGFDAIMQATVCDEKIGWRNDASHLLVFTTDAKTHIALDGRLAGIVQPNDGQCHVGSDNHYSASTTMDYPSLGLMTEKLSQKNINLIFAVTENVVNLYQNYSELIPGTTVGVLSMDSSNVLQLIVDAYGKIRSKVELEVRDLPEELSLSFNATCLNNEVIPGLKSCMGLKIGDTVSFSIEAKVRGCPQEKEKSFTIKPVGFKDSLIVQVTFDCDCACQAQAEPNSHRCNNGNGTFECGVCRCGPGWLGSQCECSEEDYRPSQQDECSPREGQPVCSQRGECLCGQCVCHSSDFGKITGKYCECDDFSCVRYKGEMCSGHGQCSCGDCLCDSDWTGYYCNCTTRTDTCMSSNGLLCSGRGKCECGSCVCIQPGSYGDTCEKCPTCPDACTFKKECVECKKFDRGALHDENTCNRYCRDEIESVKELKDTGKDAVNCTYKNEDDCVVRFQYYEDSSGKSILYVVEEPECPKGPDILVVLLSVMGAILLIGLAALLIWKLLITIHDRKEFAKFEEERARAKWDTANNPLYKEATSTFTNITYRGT

Row | binding result [1] | Src phosphorylation (Western blot of HUVEC attached to the peptide, serum free) [2] [fold] | β3-integrin phosphorylation (Western blot of HUVEC attached to the peptide, no growth factors) [2] [fold] | Binder
1 | binds | – | – | CKGDRGDAPGC (2) [Synthetic collagen RGD containing peptide P-1 (CKGDRGDAPGC)]
2 | – | ~2 | > 3 | CQGPRGDKGEC [Synthetic collagen RGD containing peptide P-2 (CQGPRGDKGEC)]
